# B1: nanobody 2NSP23 (VHH)
# VHH: QVQLQESGGGLVQPGGSLRLSCAASGLAFSMYTMGWFRQAPGKEREFVAMIISSGDSTDYADSVKGRFTISRDNGKNTVYLQMDSLKPEDTAVYYCAAPKFRYYFSTSPGDFDSWGQGTQVTVSS
# notes: also called 2NSP23 with His Tag
# Target: T1, uniformly 15N,13C-labelled wild-type SARS-CoV-2 NSP9 with an additional GlyAlaMetGly tetrapeptide at the … (SARS-CoV-2, UniProt P0DTD1 1-7096)
# T1 construct: mature
# Assay: 15N-1H HSQC NMR titration at 278 K
binder,measurement,value
B1,backbone amide cross-peaks that survive at protein/nanobody ratio 1:2,~35%
